Data as given in patent US10994047B2, “Peptide dendrimers comprising fibrinogen-binding peptides” (HAEMOSTATIX LIMITED, priority 2014, dated 2021).
Where no end group is shown, it is not given here.

Legend:
[1] = target: T1, fibrinogen hole 'a' and hole 'b' (Homo sapiens, UniProt P02675+P02679); details: cited from earlier work
T1 sequence (P02679 27-433 limits assumed): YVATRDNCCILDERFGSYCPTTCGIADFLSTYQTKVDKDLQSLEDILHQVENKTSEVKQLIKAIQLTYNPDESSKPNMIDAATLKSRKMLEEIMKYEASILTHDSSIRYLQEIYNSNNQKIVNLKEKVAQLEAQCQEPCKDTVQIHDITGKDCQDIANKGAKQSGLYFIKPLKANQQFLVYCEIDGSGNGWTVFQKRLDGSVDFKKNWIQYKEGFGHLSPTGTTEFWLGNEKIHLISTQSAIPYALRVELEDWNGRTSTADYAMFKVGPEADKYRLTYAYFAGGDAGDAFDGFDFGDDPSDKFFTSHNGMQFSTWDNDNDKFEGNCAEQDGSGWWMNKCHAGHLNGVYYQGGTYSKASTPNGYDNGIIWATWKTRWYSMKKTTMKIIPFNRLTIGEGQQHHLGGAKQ
T1 sequence (P02675 31-491): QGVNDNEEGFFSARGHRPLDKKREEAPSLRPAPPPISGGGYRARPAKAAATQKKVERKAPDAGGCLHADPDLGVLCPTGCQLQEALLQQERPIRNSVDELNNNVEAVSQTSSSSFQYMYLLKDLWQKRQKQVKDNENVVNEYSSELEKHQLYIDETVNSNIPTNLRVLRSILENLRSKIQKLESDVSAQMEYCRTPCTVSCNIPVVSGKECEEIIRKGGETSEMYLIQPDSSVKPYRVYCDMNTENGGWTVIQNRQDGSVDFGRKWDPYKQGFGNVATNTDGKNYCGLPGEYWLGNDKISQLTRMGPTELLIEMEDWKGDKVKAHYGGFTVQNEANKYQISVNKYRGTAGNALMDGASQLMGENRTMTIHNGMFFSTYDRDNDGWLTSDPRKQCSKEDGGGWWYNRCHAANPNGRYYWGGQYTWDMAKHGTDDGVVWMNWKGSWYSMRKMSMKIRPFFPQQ
T1 sequence (P02671 20-629 partner limits assumed): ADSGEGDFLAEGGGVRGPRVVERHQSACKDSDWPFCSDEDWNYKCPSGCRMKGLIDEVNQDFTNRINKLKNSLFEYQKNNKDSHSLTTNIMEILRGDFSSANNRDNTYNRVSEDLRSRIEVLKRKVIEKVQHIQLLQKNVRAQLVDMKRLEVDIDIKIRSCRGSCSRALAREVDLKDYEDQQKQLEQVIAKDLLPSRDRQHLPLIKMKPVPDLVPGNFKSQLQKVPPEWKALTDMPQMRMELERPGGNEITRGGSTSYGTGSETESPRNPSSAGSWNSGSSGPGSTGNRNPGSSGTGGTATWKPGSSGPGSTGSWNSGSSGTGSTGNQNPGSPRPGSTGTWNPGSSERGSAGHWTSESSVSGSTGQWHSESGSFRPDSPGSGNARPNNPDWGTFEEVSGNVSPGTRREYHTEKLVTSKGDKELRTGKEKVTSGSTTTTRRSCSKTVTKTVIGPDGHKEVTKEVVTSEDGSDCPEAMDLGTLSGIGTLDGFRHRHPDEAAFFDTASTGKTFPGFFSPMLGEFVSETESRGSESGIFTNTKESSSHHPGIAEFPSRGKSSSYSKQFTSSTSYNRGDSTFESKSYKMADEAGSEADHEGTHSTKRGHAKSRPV

[2] = target: T2, purified human fibrinogen (Homo sapiens, UniProt P02675+P02679); assay: Copolymerisation of peptide dendrimer with purified fibrinogen, clotting time on KC4 Delta coagulation analyser; format: biochemical
T2 sequence (P02679 27-433 limits assumed): T1 sequence (P02679 27-433 limits assumed)
T2 sequence (P02675 31-491): T1 sequence (P02675 31-491)
T2 sequence (P02671 20-629 partner limits assumed): T1 sequence (P02671 20-629 partner limits assumed)
Method: The ability of Peptide Dendrimer No. 12 to polymerise fibrinogen was assessed. 30 μl of dendrimer in solution, at concentration ranging from 0.005-2 mg/ml, was added to 100 μl purified human fibrinogen at 3 mg/ml (the level of fibrinogen found in the blood). Polymerisation of fibrinogen was analysed using a Sigma Amelung KC4 Delta coagulation analyser.
The ability of Peptide Dendrimer Nos. 4, 5, 10, 11, and 12 to copolymerise with fibrinogen was assessed using the same method described in Example 2. The concentration of each dendrimer was varied from 0.005-0.5 mg/ml.
The ability of the dendrimers to copolymerise with fibrinogen was assessed using the same method described in Example 2, for a concentration of each dendrimer ranging from 0.005-0.5 mg/ml.

[3] = target: T3, fibrinogen in human plasma (Homo sapiens, UniProt P02675+P02679); assay: Polymerisation of fibrinogen in human plasma, clotting time; format: biochemical; details: 37° C.; for ability to polymerise fibrinogen in human plasma: 30 μL dendrimer 0.25 mg/ml added to 100 μL human plasma, FIG. 7
T3 construct: from tissue; host or cells: human plasma
T3 sequence (P02679 27-433 limits assumed): T1 sequence (P02679 27-433 limits assumed)
T3 sequence (P02675 31-491): T1 sequence (P02675 31-491)
T3 sequence (P02671 20-629 partner limits assumed): T1 sequence (P02671 20-629 partner limits assumed)
Method: 30 μL of each dendrimer (at a concentration of 0.25 mg/ml) was added to 100 μL human plasma at 37° C., and polymerisation of fibrinogen was determined using a Sigma Amelung KC4 Delta coagulation analyzer.

human fibrinogen = target: T4, human fibrinogen (Homo sapiens, UniProt P02675+P02679); assay: Clotting activity of dendrimers extracted from gamma-irradiated gelatin paste; format: biochemical; details: 37° C.
T4 sequence (P02679 27-433 limits assumed): T1 sequence (P02679 27-433 limits assumed)
T4 sequence (P02675 31-491): T1 sequence (P02675 31-491)
T4 sequence (P02671 20-629 partner limits assumed): T1 sequence (P02671 20-629 partner limits assumed)
Method: 2 ml of solution of Peptide Dendrimer No. 12 or 13 was mixed with SURGIFLO Haemostatic Matrix (a hydrated flowable gelatin matrix) to form a paste of each peptide. Each paste was sterilised by irradiation with ^60Co gamma rays at a dose of 30 kGy, and then stored at room temperature. Samples of the sterilised pastes were used for testing after storage for two and four weeks.
After storage, peptide dendrimers were extracted from each paste using 10 mM HEPES buffer. 30 μL of each extract (with a peptide concentration of about 0.25 mg/ml) was added to 100 μL of human fibrinogen at 3 mg/ml, and the ability of each dendrimer to polymerise fibrinogen (the ‘clotting’ activity) at 37° C. was determined using a Sigma Amelung KC4 Delta coagulation analyser. The polymerisation activity of non-irradiated control samples was also determined.

[4] = dendrimer 0.005-0.5 mg/ml, fibrinogen 3 mg/ml, FIG. 2 and 3

GHRPY- (SEQ ID NO: 11) (listed as Homo sapiens)
binding preference for hole 'a' or hole 'b' of fibrinogen [1]: binds strongly and preferentially to the ‘b’ hole of fibrinogen

GPRP- (SEQ ID NO: 1)
binding preference for hole 'a' or hole 'b' of fibrinogen [1]: binds strongly and preferentially to the ‘a’ hole of fibrinogen

GPRPFPA (listed as Homo sapiens) [GPRPFPA (SEQ ID NO: 3)]
binding preference for hole 'a' or hole 'b' of fibrinogen [1]: binds with high preference for hole ‘a’ in fibrinogen

GPRPG (SEQ ID NO: 15) ((5)..(5) Carbox-terminal end may comprise an amide group; listed as Homo sapiens)
binding preference for hole 'a' or hole 'b' of fibrinogen [1]: binds to hole ‘a’ and hole ‘b’ of fibrinogen, but with some preference for hole ‘a’

Peptide Dendrimer No. 8: three-branch dendrimer: two peptides GPRPG, third APFPRPG attached by its amino-terminal end, carboxy-terminal amide (chain 2 APFPRPG-NH2; also: three-branch dendrimer core: two GPRPG, APFPRPG attached by its amino-terminal end; listed as Homo sapiens)
ability to copolymerise with fibrinogen (clotting time) [2, 4]: able to copolymerise with fibrinogen
ability to polymerise fibrinogen in human plasma [3]: not able to polymerise fibrinogen in human plasma

Peptide Dendrimer No. 9: three-branch dendrimer: two peptides GPRPFPA, third APFPRPG attached by its amino-terminal end, carboxy-terminal amide (chain 2 APFPRPG-NH2; also: three-branch dendrimer core: two GPRPFPA, APFPRPG attached by its amino-terminal end; listed as Homo sapiens)
ability to copolymerise with fibrinogen (clotting time) [2, 4]: very active in copolymerising with fibrinogen
ability to polymerise fibrinogen in human plasma [3]: not able to polymerise fibrinogen in human plasma

Peptide Dendrimer No. 10: three-branch dendrimer, three GPRPG peptides each attached by carboxy-terminal end to the branched core (also: three copies of chain 1 attached by C-termini to a branched core; listed as Homo sapiens)
clotting times compared between dendrimers ([2]; concentrations below ~0.125 mg/ml dendrimer, FIG. 2): faster clotting times than dendrimer no. 4
ability to polymerise fibrinogen in human plasma [3]: able to polymerise fibrinogen in human plasma

Peptide Dendrimer No. 12: five-arm dendrimer, GPRPG- peptides; branched core with five consecutive lysine residues linked through side chains (chain KKKKK; also: five-arm dendrimer of GPRPG on core of five lysines linked through side chains, attachment places not given here)
Clotting activity, Non-irradiated control (human fibrinogen; extract from gelatin paste, about 0.25 mg/ml peptide, human fibrinogen 3 mg/ml, not irradiated): 1 s
Clotting activity, Storage for 2 weeks post irradiation (human fibrinogen; paste irradiated 30 kGy 60Co gamma, stored 2 weeks at room temperature, extract about 0.25 mg/ml, fibrinogen 3 mg/ml): 1 s
Clotting activity, Storage for 4 weeks post irradiation (human fibrinogen; paste irradiated 30 kGy 60Co gamma, stored 4 weeks at room temperature, extract about 0.25 mg/ml, fibrinogen 3 mg/ml): 1 s
ability to copolymerise with fibrinogen (clotting time) ([2]; dendrimer 0.005-2 mg/ml, 100 μl purified human fibrinogen 3 mg/ml, FIG. 1): able to copolymerise with fibrinogen almost instantaneously
clotting ([2]; dendrimer range ~0.02-0.5 mg/ml, FIG. 2): almost instantaneous clotting
ability to polymerise fibrinogen in human plasma [3]: able to polymerise fibrinogen in human plasma
clotting time in human plasma ([3]; dendrimer 0.25 mg/ml, human plasma): less than one
